Data as given in doi:10.1101/2024.06.27.600912 (bioRxiv, 2024).

Target: the molecule itself
Assay: cryo-EM structure

| Protein | binding result |
| --- | --- |
| MORC2 phosphodead mutant (S725A, S730A, S739A, S743A, S777A, S779A), full length (natural protein) MAFTNYSSLNRAQLTFEYLHTNSTTHEFLFGALAELVDNARDADATRIDIYAERREDLRGGFMLCFLDDGAGMDPSDAASVIQFGKSAKRTPESTQIGQYGNGLKSGSMRIGKDFILFTKKEDTMTCLFLSRTFHEEEGIDEVIVPLPTWNARTREPVTDNVEKFAIETELIYKYSPFRTEEEVMTQFMKIPGDSGTLVIIFNLKLMDNGEPELDIISNPRDIQMAETSPEGTKPERRSFRAYAAVLYIDPRMRIFIHGHKVQTKRLSCCLYKPRMYKYTSSRFKTRAEQEVKKAEHVARIAEEKAREAESKARTLEVRLGGDLTRDSRVMLRQVQNRAITLRREADVKKRIKEAKQRALKEPKELNFVFGVNIEHRDLDGMFIYNCSRLIKMYEKVGPQLEGGMACGGVVGVVDVPYLVLEPTHNKQDFADAKEYRHLLRAMGEHLAQYWKDIAIAQRGIIKFWDEFGYLSANWNQPPSSELRYKRRRAMEIPTTIQCDLCLKWRTLPFQLSSVEKDYPDTWVCSMNPDPEQDRCEASEQKQKVPLGTFRKDMKTQEEKQKQLTEKIRQQQEKLEALQKTTPIRSQADLKKLPLEVTTRPSTEEPVRRPQRPRSPPLPAVIRNAPSRPPSLPTPRPASQPRKAPVISSTPKLPALAAREEASTSRLLQPPEAPRKPANTLVKTASRPAPLVQQLSPSLLPNSKSPREVPSPKVIKTPVVKKTEAPIKLAPATPSRKRAVAVADEEEVEEEAERRKERCKRGRFVVKEEKKDSNELADAAGEEDSADLKRAQKDKGLHVEVRVNREWYTGRVTAVEVGKHVVRWKVKFDYVPTDTTPRDRWVEKGSEDVRLMKPPSPEHQSLDTQQEGGEEEVGPVAQQAIAVAEPSTSECLRIEPDTTALSTNHETIDLLVQILRNCLRYFLPPSFPISKKQLSAMNSDELISFPLKEYFKQYEVGLQNLCNSYQSRADSRAKASEESLRTSERKLRETEEKLQKLRTNIVALLQKVQEDIDINTDDELDAYIEDLITKGD | binds |
| full-length MORC2 ATPase-dead mutant S87A (natural protein) MAFTNYSSLNRAQLTFEYLHTNSTTHEFLFGALAELVDNARDADATRIDIYAERREDLRGGFMLCFLDDGAGMDPSDAASVIQFGKAAKRTPESTQIGQYGNGLKSGSMRIGKDFILFTKKEDTMTCLFLSRTFHEEEGIDEVIVPLPTWNARTREPVTDNVEKFAIETELIYKYSPFRTEEEVMTQFMKIPGDSGTLVIIFNLKLMDNGEPELDIISNPRDIQMAETSPEGTKPERRSFRAYAAVLYIDPRMRIFIHGHKVQTKRLSCCLYKPRMYKYTSSRFKTRAEQEVKKAEHVARIAEEKAREAESKARTLEVRLGGDLTRDSRVMLRQVQNRAITLRREADVKKRIKEAKQRALKEPKELNFVFGVNIEHRDLDGMFIYNCSRLIKMYEKVGPQLEGGMACGGVVGVVDVPYLVLEPTHNKQDFADAKEYRHLLRAMGEHLAQYWKDIAIAQRGIIKFWDEFGYLSANWNQPPSSELRYKRRRAMEIPTTIQCDLCLKWRTLPFQLSSVEKDYPDTWVCSMNPDPEQDRCEASEQKQKVPLGTFRKDMKTQEEKQKQLTEKIRQQQEKLEALQKTTPIRSQADLKKLPLEVTTRPSTEEPVRRPQRPRSPPLPAVIRNAPSRPPSLPTPRPASQPRKAPVISSTPKLPALAAREEASTSRLLQPPEAPRKPANTLVKTASRPAPLVQQLSPSLLPNSKSPREVPSPKVIKTPVVKKTESPIKLSPATPSRKRSVAVSDEEEVEEEAERRKERCKRGRFVVKEEKKDSNELSDSAGEEDSADLKRAQKDKGLHVEVRVNREWYTGRVTAVEVGKHVVRWKVKFDYVPTDTTPRDRWVEKGSEDVRLMKPPSPEHQSLDTQQEGGEEEVGPVAQQAIAVAEPSTSECLRIEPDTTALSTNHETIDLLVQILRNCLRYFLPPSFPISKKQLSAMNSDELISFPLKEYFKQYEVGLQNLCNSYQSRADSRAKASEESLRTSERKLRETEEKLQKLRTNIVALLQKVQEDIDINTDDELDAYIEDLITKGD | binds |
